Earlier results as cited in article PMC7510350.

Tests used:
[1] = target: IscA (Escherichia coli) (UniProt P0AAC8)
[2] = target: SufA (Escherichia coli) (UniProt P77667)
Chain of UniProt P77667 (P77667 whole entry): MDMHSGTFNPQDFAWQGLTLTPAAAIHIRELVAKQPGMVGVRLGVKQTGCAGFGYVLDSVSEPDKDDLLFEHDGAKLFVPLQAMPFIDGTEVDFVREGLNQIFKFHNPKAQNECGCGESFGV

Chain of UniProt P0AAC8 (P0AAC8 whole entry): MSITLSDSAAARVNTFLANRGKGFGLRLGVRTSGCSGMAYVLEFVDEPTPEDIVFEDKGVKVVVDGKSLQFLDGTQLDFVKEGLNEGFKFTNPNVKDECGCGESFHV

**Q.** With ErpA (from UniProt P0ACC3) as the substance, how does the Kd [1] read?
**A.** Its Kd is 40 µM.

**Q.** What about the Kd [2] of the same substance?
**A.** The Kd was 902 µM.
